Results taken from publication PMC3619014 (Molecular pharmaceutics, 2012).

Molecular target: human KDR (VEGFR-2) expressed on porcine aortic endothelial cells (PAE/KDR) (human, UniProt P35968 20-1356)
Experiment: radioligand binding

human KDR (VEGFR-2) expressed on porcine aortic endothelial cells (PAE/KDR), sequence (P35968 20-1356): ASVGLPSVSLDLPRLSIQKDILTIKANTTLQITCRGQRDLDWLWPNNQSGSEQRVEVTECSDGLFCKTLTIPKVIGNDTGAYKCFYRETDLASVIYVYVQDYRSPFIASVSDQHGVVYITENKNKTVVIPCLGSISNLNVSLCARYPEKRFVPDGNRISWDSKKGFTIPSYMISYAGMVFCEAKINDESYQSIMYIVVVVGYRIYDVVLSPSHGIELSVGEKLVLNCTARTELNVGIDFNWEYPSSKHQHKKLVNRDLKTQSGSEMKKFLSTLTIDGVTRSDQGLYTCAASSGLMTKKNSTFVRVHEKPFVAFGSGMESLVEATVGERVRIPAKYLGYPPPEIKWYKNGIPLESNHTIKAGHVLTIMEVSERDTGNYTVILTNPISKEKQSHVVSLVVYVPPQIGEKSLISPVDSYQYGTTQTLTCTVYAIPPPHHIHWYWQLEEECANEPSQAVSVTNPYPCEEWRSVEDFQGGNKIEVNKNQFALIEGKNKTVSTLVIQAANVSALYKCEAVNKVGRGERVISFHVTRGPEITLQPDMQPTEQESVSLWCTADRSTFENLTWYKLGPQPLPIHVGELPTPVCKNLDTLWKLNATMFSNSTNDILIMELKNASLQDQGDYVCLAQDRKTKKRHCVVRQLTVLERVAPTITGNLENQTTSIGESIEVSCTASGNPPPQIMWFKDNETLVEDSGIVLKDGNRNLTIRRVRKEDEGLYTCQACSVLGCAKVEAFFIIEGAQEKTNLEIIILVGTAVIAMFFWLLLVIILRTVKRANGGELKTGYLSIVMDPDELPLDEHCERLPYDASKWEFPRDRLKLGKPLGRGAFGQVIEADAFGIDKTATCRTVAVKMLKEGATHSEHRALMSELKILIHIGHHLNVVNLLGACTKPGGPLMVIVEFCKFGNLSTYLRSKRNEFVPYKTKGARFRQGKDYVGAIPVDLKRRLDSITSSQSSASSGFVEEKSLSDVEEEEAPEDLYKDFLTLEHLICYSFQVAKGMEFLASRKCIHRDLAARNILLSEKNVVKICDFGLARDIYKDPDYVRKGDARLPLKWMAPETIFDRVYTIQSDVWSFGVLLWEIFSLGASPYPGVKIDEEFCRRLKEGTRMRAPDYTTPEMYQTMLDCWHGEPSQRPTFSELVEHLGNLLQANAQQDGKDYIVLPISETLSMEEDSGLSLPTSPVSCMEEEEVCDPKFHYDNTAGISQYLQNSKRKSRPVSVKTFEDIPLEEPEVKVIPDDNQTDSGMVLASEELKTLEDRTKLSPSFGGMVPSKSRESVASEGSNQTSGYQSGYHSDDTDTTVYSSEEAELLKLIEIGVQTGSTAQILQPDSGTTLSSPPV

- IC50: 1.5 nM
B1: NOTA-K3-VEGF121 (ligand)
chain: KKKAPMAEGGGQNHHEVVKFMDVYQRSYCHPIETLVDIFQEYPDEIEYIFKPSCVPLMRCGGCCNDEGLECVPTEESNITMQIMRIKPHQGQHIGEMSFLQHNKCECRPKKDRARQEKCDKPRR
modifications: NOTA (from p-SCN-Bn-NOTA) on lysine residues, estimated 1~2 NOTA residues in each NOTA-K3-VEGF121; positions not determined
